{
  "source": "paper PMC4595200",
  "about": "“In vitro analyses of mitochondrial ATP/phosphate carriers from Arabidopsis thaliana revealed unexpected Ca^2+-effects” (BMC Plant Biology, 2015)",
  "proteins": {"B1": {"name": "AtAPC2 (Arabidopsis thaliana) (protein)", "chain": "MEATKSSKQNCCNPVKKPGPVSIDHVLLALRETREERDLRIRSLFSFFDSENVGYLDCAQIEKGLCALQIPSGYKYAKELFRVCDANRDGRVDYHEFRRYMDDKELELYRIFQAIDVEHNGCISPEGLWDSLVKAGIEIKDEELARFVEHVDKDNDGIIMFEEWRDFLLLYPHEATIENIYHHWERVCLVDIGEQAVIPEGISKHIKRSNYFIAGGIAGAASRTATAPLDRLKVLLQIQKTDARIREAIKLIWKQGGVRGFFRGNGLNIVKVAPESAIKFYAYELFKNAIGENMGEDKADIGTTVRLFAGGMAGAVAQASIYPLDLVKTRLQTYTSQAGVAVPRLGTLTKDILVHEGPRAFYKGLFPSLLGIIPYAGIDLAAYETLKDLSRTYILQDAEPGPLVQLGCGTISGALGATCVYPLQVVRTRMQAERARTSMSGVFRRTISEEGYRALYKGLLPNLLKVVPAASITYMVYEAMKKSLELD"}, "B2": {"name": "AtAPC1 (Arabidopsis thaliana) (protein)", "chain": "MEAEKSKQNPGKKPVEATMEHVLVALRETKEKREIRIQKLFEFFDNSKLGFLDDTQIEKGLSSLSIPPKYRYASDFLKVCDSNRDGRVDYQEFRRYMDAKELELYKIFQAIDIEHNGDICPAELWEALDKAGIKIKDEELASFMEHVDKDNNGIITFEEWRDFLLLNPHEATIENIYHHWERVCLIDIGEQAVIPDGISAHAQRSKLLLAGGIAGAVSRTATAPLDRLKVALQVQRTNLGVVPTIKKIWREDKLLGFFRGNGLNVAKVAPESAIKFAAYEMLKPIIGGADGDIGTSGRLLAGGLAGAVAQTAIYPMDLVKTRLQTFVSEVGTPKLWKLTKDIWIQEGPRAFYRGLCPSLIGIIPYAGIDLAAYETLKDLSRAHFLHDTAEPGPLIQLGCGMTSGALGASCVYPLQVIRTRMQADSSKTSMGQEFLKTLRGEGLKGFYRGIFPNFFKVIPSASISYLVYEAMKKNLALD"}, "B3": {"name": "AtAPC3 (Arabidopsis thaliana) (protein)", "chain": "MESSKPKNRNPMKKPVSITMEHVLLALRETMDEREIRIRSLFDFFDNSNLGFLDYAQIEKGLASLQIPPEYKYARDLFRVCDANRDGRVDYQEFRRYIDAKELELYRIFQAIDVEHNGCILPEELWEALVKAGIEIDDEELARFVEHVDKDNNGTITFEEWRDFLLLYPHEATLENIYHHWERVCLIDIGEQAVIPDGISKHVKRSRLLLAGGLAGAVSRTATAPLDRLKVVLQVQRAHAGVLPTIKKIWREDKLMGFFRGNGLNVMKVAPESAIKFCAYEMLKPMIGGEDGDIGTSGRLMAGGMAGALAQTAIYPMDLVKTRLQTCVSEGGKAPKLWKLTKDIWVREGPRAFYKGLFPSLLGIVPYAGIDLAAYETLKDLSRTYILQDTEPGPLIQLSCGMTSGALGASCVYPLQVVRTRMQADSSKTTMKQEFMNTMKGEGLRGFYRGLLPNLLKVVPAASITYIVYEAMKKNMALD"}},
  "key": {"[1]": {"substrate": "Nc1ncnc2c1ncn2[C@@H]1O[C@H](COP(=O)(O)OP(=O)(O)O)[C@@H](O)[C@H]1O", "assay": "radiolabelled uptake into proteoliposomes", "assay_type": "biochemical, Arabidopsis thaliana", "details": "ADP import / ATP export (ATP-loaded, 5 mM), no added Ca2+ or Mg2+, pH 7.5, 30 °C, 2.5 min, labelled compound, apparent"}, "[2]": {"substrate": "Nc1ncnc2c1ncn2[C@@H]1O[C@H](COP(=O)(O)OP(=O)(O)OP(=O)(O)O)[C@@H](O)[C@H]1O", "assay": "radiolabelled uptake into proteoliposomes", "assay_type": "biochemical, Arabidopsis thaliana", "details": "ATP import / Pi export (Pi-loaded, 5 mM), no added Ca2+ or Mg2+ (traces ~9 μM each), pH 7.5, 30 °C, 2.5 min, labelled compound, apparent"}, "purified protein [3]": {"substrate": "Nc1ncnc2c1ncn2[C@@H]1O[C@H](COP(=O)(O)OP(=O)(O)O)[C@@H](O)[C@H]1O", "assay": "purified protein", "details": "ADP import / ATP export (ATP-loaded, 5 mM), no added Ca2+ or Mg2+, pH 7.5, 30 °C, 2.5 min, labelled compound, apparent"}, "purified protein [4]": {"substrate": "Nc1ncnc2c1ncn2[C@@H]1O[C@H](COP(=O)(O)OP(=O)(O)OP(=O)(O)O)[C@@H](O)[C@H]1O", "assay": "purified protein", "details": "ATP import / Pi export (Pi-loaded, 5 mM), no added Ca2+ or Mg2+ (traces ~9 μM each), pH 7.5, 30 °C, 2.5 min, labelled compound, apparent"}},
  "data": [
    {"protein": "B1", "values": [
      {"measurement": "Km", "setting": "[1]", "value": "374 (±40) μM"},
      {"measurement": "Vmax", "setting": "[1]", "value": "778 (±82) nmol mg protein^-1 h^-1"},
      {"measurement": "Km", "setting": "[2]", "value": "95 (±12) μM"},
      {"measurement": "Vmax", "setting": "[2]", "value": "212 (±24) nmol mg protein^-1 h^-1"}
    ]},
    {"protein": "B2", "values": [
      {"measurement": "Km", "setting": "purified protein [3]", "value": "180 (±15) μM"},
      {"measurement": "Vmax", "setting": "purified protein [3]", "value": "2078 (±315) nmol mg protein^-1 h^-1"},
      {"measurement": "Km", "setting": "purified protein [4]", "value": "68 (6) μM"},
      {"measurement": "Vmax", "setting": "purified protein [4]", "value": "201(±14) nmol mg protein^-1 h^-1"}
    ]},
    {"protein": "B3", "values": [
      {"measurement": "Km", "setting": "[1]", "value": "72 (±5) μM"},
      {"measurement": "Vmax", "setting": "[1]", "value": "770 (±90) nmol mg protein^-1 h^-1"},
      {"measurement": "Km", "setting": "[2]", "value": "113 (±17) μM"},
      {"measurement": "Vmax", "setting": "[2]", "value": "282 (±20) nmol mg protein^-1 h^-1"}
    ]}
  ]
}
